The source of these data is the supplement of paper PMC11246515.

± gives the standard deviation of the averaged measurements.

This data set in a line: total protein half-life in vivo (active degradation + dilution); higher = more stable protein.
The mark [1] stands for this setting: E. coli NCM3722 delta-clpP delta-lon delta-hslV, growth: N-lim chemostat, doubling time 6 h.
Setting [2] is: E. coli NCM3722 delta-clpP, growth: N-lim chemostat, doubling time 6 h.
The mark [3] stands for this setting: E. coli NCM3722 delta-hslV, growth: N-lim chemostat, doubling time 6 h.
Where [4] appears, read: E. coli NCM3722 delta-lon, growth: N-lim chemostat, doubling time 6 h.
The mark [5] stands for this setting: E. coli NCM3722 delta-smpB, growth: N-lim chemostat, doubling time 6 h.
Where [6] appears, read: wild type E. coli NCM3722, growth: C-lim chemostat, doubling time 3 h.
Where [7] appears, read: wild type E. coli NCM3722, growth: C-lim chemostat, doubling time 6 h.
Setting [8] is: wild type E. coli NCM3722, growth: C-lim chemostat, doubling time 12 h.
Where [9] appears, read: wild type E. coli NCM3722, growth: N-lim chemostat, doubling time 6 h.
[10] abbreviates: wild type E. coli NCM3722, growth: N-lim chemostat, doubling time 12 h.
[11] abbreviates: wild type E. coli NCM3722, growth: P-lim chemostat, doubling time 6 h.
Where [12] appears, read: wild type E. coli NCM3722, growth: P-lim chemostat, doubling time 12 h.

As to “MSFFHASQRDALNQSLAEVQGQINVSFEFFPPRTSEMEQTLWNSIDRLSSLKPKFVSVTYGANSGERDRTHSIIKGIKDRTGLEAAPHLTCIDATPDELRTIARDYWNNGIRHIVALRGDLPPGSGKPEMYASDLVTLLKEVADFDISVAAYPEVHPEAKSAQADLLNLKRKVDAGANRAITQFFFDVESYLRFRDRCVSAGIDVEIIPGILPVSNFKQAKKFADMTNVRIPAWMAQMFDGLDDDAETRKLVGANIAMDMVKILSREGVKDFHFYTLNRAEMSYAICHTLGVRPGL [P0AEZ1]”, the “total protein half-life in vivo” value is, setting by setting: under setting [1], 3.64 ± 0.65 h; under setting [2], 3.18 ± 0.53 h; under setting [3], 2.96 ± 0.52 h; under setting [4], 3.54 ± 0.14 h; under setting [5], 3.16 ± 0.31 h; under setting [6], 2.99 ± 0.18 h. Besides, the “total protein half-life in vivo” value came to 4.97 ± 0.25 h under setting [7]; 8.59 ± 0.26 h under setting [8]; 3.02 ± 0.1 h under setting [9]; 4.47 ± 0.053 h under setting [10]; 5.51 ± 0.12 h under setting [11]; 10.7 ± 0.34 h under setting [12].

On to “MKAAAKTQKPKRQEEHANFISWRFALLCGCILLALAFLLGRVAWLQVISPDMLVKEGDMRSLRVQQVSTSRGMITDRSGRPLAVSVPVKAIWADPKEVHDAGGISVGDRWKALANALNIPLDQLSARINANPKGRFIYLARQVNPDMADYIKKLKLPGIHLREESRRYYPSGEVTAHLIGFTNVDSQGIEGVEKSFDKWLTGQPGERIVRKDRYGRVIEDISSTDSQAAHNLALSIDERLQALVYRELNNAVAFNKAESGSAVLVDVNTGEVLAMANSPSYNPNNLSGTPKEAMRNRTITDVFEPGSTVKPMVVMTALQRGVVRENSVLNTIPYRINGHEIKDVARYSELTLTGVLQKSSNVGVSKLALAMPSSALVDTYSRFGLGKATNLGLVGERSGLYPQKQRWSDIERATFSFGYGLMVTPLQLARVYATIGSYGIYRPLSITKVDPPVPGERVFPESIVRTVVHMMESVALPGGGGVKAAIKGYRIAIKTGTAKKVGPDGRYINKYIAYTAGVAPASQPRFALVVVINDPQAGKYYGGAVSAPVFGAIMGGVLRTMNIEPDALTTGDKNEFVINQGEGTGGRS [P0AD68]”, for which the “total protein half-life in vivo” value amounted to 2.8 ± 0.043 h under setting [1]; 2.39 ± 0.032 h under setting [2]; 2.53 ± 0.39 h under setting [3]; 2.31 ± 0.099 h under setting [4]; 2.77 ± 0.059 h under setting [5]; 1.75 ± 0.11 h under setting [6]. Further, the “total protein half-life in vivo” value is, setting by setting: under setting [7], 2.35 ± 0.13 h; under setting [8], 2.75 ± 0.35 h; under setting [9], 2.61 ± 0.035 h; under setting [10], 3.15 ± 0.18 h; under setting [11], 3.311 ± 0.027 h; under setting [12], 4.83 ± 0.71 h.

Regarding “MLHPRARTMLLLSLPAVAIGIASSLILIVVMKIASVLQNLLWQRLPGTLGIAQDSPLWIIGVLTLTGIAVGLVIRFSQGHAGPDPACEPLIGAPVPPSALPGLIVALILGLAGGVSLGPEHPIMTVNIALAVAIGARLLPRVNRMEWTILASAGTIGALFGTPVAAALIFSQTLNGSSEVPLWDRLFAPLMAAAAGALTTGLFFHPHFSLPIAHYGQMEMTDILSGAIVAAIAIAAGMVAVWCLPRLHAMMHQMKNPVLVLGIGGFILGILGVIGGPVSLFKGLDEMQQMVANQAFSTSDYFLLAVIKLAALVVAAASGFRGGRIFPAVFVGVALGLMLHEHVPAVPAAITVSCAILGIVLVVTRDGWLSLFMAAVVVPNTTLLPLLCIVMLPAWLLLAGKPMMMVNRPKQQPPHDNV”, the “total protein half-life in vivo” value reads like this: under setting [2], 6.28 h; under setting [3], 7.8 h; under setting [4], 5.98 h; under setting [8], 11.1 h; under setting [9], 6.78 h; under setting [10], 12.5 h. Under setting [12], the “total protein half-life in vivo” value is above 16 h.

With “MDDLTAQALKDFTARYCDAWHEEHKSWPLSEELYGVPSPCIISTTEDAVYWQPQPFTGEQNVNAVERAFDIVIQPTIHTFYTTQFAGDMHAQFGDIKLTLLQTWSEDDFRRVQENLIGHLVTQKRLKLPPTLFIATLEEELEVISVCNLSGEVCKETLGTRKRTHLASNLAEFLNQLKPLL [P0A8U0]”, the “total protein half-life in vivo” value was 4.63 ± 0.19 h under setting [1]; 3.71 ± 0.25 h under setting [3]; 5.62 ± 1.2 h under setting [4]; 4.15 ± 0.19 h under setting [5]; above 4 h under setting [6]; 4.21 ± 1.8 h under setting [7]. Besides, the “total protein half-life in vivo” value is 9.71 h under setting [8]; 3.72 h under setting [9]; 7.43 ± 1.4 h under setting [10]; 5.7 ± 0.28 h under setting [11]; 12.7 ± 2.7 h under setting [12].

Take “MSSKVERERRKAQLLSQIQQQRLDLSASRREWLETTGAYDRRWNMLLSLRSWALVGSSVMAIWTIRHPNMLVRWARRGFGVWSAWRLVKTTLKQQQLRG”: the “total protein half-life in vivo” value under setting [1] is 5.54 ± 0.84 h; the “total protein half-life in vivo” value under setting [3] was found to be 6 ± 0.61 h; the “total protein half-life in vivo” value under setting [4] is 4.6 ± 1.6 h; the “total protein half-life in vivo” value under setting [5] amounted to 5.78 ± 0.53 h; the “total protein half-life in vivo” value under setting [6] came to 2.56 ± 0.29 h; the “total protein half-life in vivo” value under setting [7] stood at 4.85 ± 0.21 h. Moreover, the “total protein half-life in vivo” value under setting [8] stood at 8.71 h; the “total protein half-life in vivo” value under setting [9] came out at 5.6 ± 1.8 h; the “total protein half-life in vivo” value under setting [10] came to 11.4 h; the “total protein half-life in vivo” value under setting [11] came out at 4.85 h; the “total protein half-life in vivo” value under setting [12] was found to be 10.2 ± 0.32 h.

Take “MRHCGWLLGLLSLFSLATHASDWQEIKNEAKGQTVWFNAWGGDTAINRYLDWVSGEMKTHYAINLKIVRLADAADAVKRIQTEAAAGRKTGGSVDLLWVNGENFRTLKEANLLQTGWAETLPNWRYVDTQLPVREDFSVPTQGAESPWGGAQLTFIARRDVTPQPPQTPQALLEFAKANPGTVTYPRPPDFTGTAFLEQLLIMLTPDPAALKEAPDDATFARVTAPLWQYLDVLHPYLWREGKDFPPSPARMDALLKAGTLRLSLTFNPAHAQQKIASGDLPASSYSFGFREGMIGNVHFVTIPANANASAAAKVVANFLLSPDAQLRKADPAVWGDPSVLDPQKLPDGQRESLQSRMPQDLPPVLAEPHAGWVNALEQEWLHRYGTH”: the “total protein half-life in vivo” value under setting [1] came out at 5.63 ± 0.51 h; the “total protein half-life in vivo” value under setting [2] came to 6.09 ± 0.099 h; the “total protein half-life in vivo” value under setting [3] is 6.22 ± 0.27 h; the “total protein half-life in vivo” value under setting [4] was 6.17 ± 0.65 h; the “total protein half-life in vivo” value under setting [5] amounted to 5.628 ± 0.055 h; the “total protein half-life in vivo” value under setting [6] worked out at 3.45 ± 0.33 h. The “total protein half-life in vivo” value amounted to 6.17 ± 0.22 h under setting [7]; 13.7 ± 0.41 h under setting [8]; 6.027 ± 0.021 h under setting [9]; 13.4 ± 0.98 h under setting [10]; 6.54 ± 0.45 h under setting [11]; 12.3 ± 1.5 h under setting [12].
